Measurements as given in article PMC11828465.
Each block holds one substance with its values, some of them ahead of it.

Molecular target: Vps26A (UniProt O75436)
Assay: BRET titration curves in live cells
Details: sites S72

other: BRET50 (reference: wild-type HEK293 cells): weaker; reference 0.0022±0.0009
Substance: Rab7A (from UniProt P51149) NEK7KO HEK293 cells

other: BRET50 (reference: NEK7KO HEK293 cells): stronger; reference 0.0096±0.0039
Substance: Rab7A (from UniProt P51149) NEK7KO HEK293 cells expressing HA–NEK7

other: BRET50 (reference: wild type RlucII–Rab7A): weaker; reference 0.0026±0.000512
Substance: Rab7A (from UniProt P51149) S72A
